The test concerns the target HA-JMJD5 (wildtype, pEF6) (human, UniProt Q8N371 1-416). Kind of test: co-IP.

Sequence of HA-JMJD5 (wildtype, pEF6) (Q8N371 whole entry): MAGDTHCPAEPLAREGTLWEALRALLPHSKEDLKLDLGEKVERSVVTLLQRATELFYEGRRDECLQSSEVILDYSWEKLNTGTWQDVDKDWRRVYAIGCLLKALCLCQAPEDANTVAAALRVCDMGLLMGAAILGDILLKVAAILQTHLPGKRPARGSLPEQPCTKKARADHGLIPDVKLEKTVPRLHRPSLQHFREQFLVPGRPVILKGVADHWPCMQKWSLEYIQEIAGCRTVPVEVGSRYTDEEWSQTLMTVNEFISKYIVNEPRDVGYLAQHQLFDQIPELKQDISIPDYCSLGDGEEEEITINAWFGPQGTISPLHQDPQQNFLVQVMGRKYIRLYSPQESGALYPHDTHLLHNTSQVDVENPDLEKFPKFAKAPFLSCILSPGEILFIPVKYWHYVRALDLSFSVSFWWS

B1: RCCD1-FLAG (wildtype, pIHZ) (natural protein)
chain: MAEERPGAWFGFGFCGFGQELGSGRGRQVHSPSPLRAGVDICRVSASWSYTAFVTRGGRLELSGSASGAAGRCKDAWASEGLLAVLRAGPGPEALLQVWAAESALRGEPLWAQNVVPEAEGEDDPAGEAQAGRLPLLPCARAYVSPRAPFYRPLAPELRARQLELGAEHALLLDAAGQVFSWGGGRHGQLGHGTLEAELEPRLLEALQGLVMAEVAAGGWHSVCVSETGDIYIWGWNESGQLALPTRNLAEDGETVAREATELNEDGSQVKRTGGAEDGAPAPFIAVQPFPALLDLPMGSDAVKASCGSRHTAVVTRTGELYTWGWGKYGQLGHEDTTSLDRPRRVEYFVDKQLQVKAVTCGPWNTYVYAVEKGKS
As for B1, the binding result is recorded as “binds”.

The record behind these values is paper doi:10.1101/2025.11.22.689938 (bioRxiv, 2025).
